Target: T1, HBEGF (delta TM)-ALP, Q99075
T1 chain: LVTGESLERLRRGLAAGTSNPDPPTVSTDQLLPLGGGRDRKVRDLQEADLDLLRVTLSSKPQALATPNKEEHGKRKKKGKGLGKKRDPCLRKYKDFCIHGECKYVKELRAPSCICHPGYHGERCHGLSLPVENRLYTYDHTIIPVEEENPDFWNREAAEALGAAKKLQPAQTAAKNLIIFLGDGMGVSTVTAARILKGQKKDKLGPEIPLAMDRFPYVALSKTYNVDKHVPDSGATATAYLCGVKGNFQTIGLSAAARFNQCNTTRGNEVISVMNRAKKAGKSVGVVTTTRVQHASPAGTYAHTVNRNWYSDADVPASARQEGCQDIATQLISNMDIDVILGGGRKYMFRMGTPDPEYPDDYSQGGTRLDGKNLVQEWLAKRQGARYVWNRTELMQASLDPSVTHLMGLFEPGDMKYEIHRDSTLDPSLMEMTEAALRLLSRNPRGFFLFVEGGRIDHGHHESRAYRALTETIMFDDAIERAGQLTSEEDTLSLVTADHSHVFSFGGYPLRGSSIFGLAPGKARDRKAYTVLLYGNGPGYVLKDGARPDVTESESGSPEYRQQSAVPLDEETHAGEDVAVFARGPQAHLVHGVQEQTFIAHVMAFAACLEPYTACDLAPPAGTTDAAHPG

B1: recombinant AST (human airway-specific trypsin-like enzyme expressed in insect cells with a baculovirus vector, purified as in Example 1) (peptide)
chain 1: DQAAANWLINECGAGPDLITLSEQR
chain 2: not shown
cleavage seen by western blotting of the lysate incubated with recombinant HAST (1.56 U/mL) at 37° C. overnight: A mature type having the EGF domain of the HB-EGF was cut out. The band was shifted to a position of about 12 kD.

Source: US20040038369
